{"source": "paper PMC4231741", "molecular_target": "MspJI wild type (modification-dependent restriction endonuclease)", "assay": "crystal structure"}
{"substance": "MspJI wild type (modification-dependent restriction endonuclease) (enzyme)", "values": [{"measurement": "stoichiometry N", "result": 4}]}
